Target: the molecule itself
Experiment: yeast two-hybrid two-by-two matrix, LacZ and HIS3 reporters

B1: HCV core protein, full length (strain H) (other)
chain: MSTNPKPQRKTKRNTNRRPQDVKFPGGGQIVGGVYLLPRRGPRLGVRATRKTSERSQPRGRRQPIPKARRPEGRTWAQPGYPWPLYGNEGCGWAGWLLSPRGSRPSWGPTDPRRRSRNLGKVIDTLTCGFADLMGYIPLVGAPLGGAARALAHGVRVLEDGVNYATGNLPGCSFSIFLLALLSCLTVPASA
notes: mature; also called capsid protein; full-length capsid
- binding result: no binding
